For one substance, stoichiometry N results are on record in paper PMC10714721.

This assay has as its target histidine-tagged VfmH (Dickeya dadantii). In words: not stated; oligomerization pattern of VfmH with or without c-di-GMP or ATP (Fig. S5); method not given.

“And” between values parts separate entries of the source, which are not always exact repeats. Identical values can stand only once.

Turning to histidine-tagged VfmH (natural protein), the stoichiometry N was 6 and 2 and 3.
